Tests used:
Type in all cases: in vivo
soybean [1] = assay: Field trial: Geobacillus stearothermophilus esterase soybean seed treatment, yield; details: 0.5 fl oz/unit on soybean seed; 6 sites
Excerpt: 0.5 fl oz/unit of Esterase (carboxylesterase) from Geobacillus/Bacillus stearothermophilus (SEQ ID NO:252) was coated onto soybean seeds treated with Evergol Energy (prothioconazole, metalaxyl, and penflufen fungicides) at 1 fl oz/cwt, Alias 4F (imidacloprid, insecticide) at 1.25 fl oz/unit, Sensient Red (colorant) at 0.5 fl oz/cwt, and Seedwork 4037L polymer at 1.5 fl oz/cwt. A control treatment without esterase enzyme was also created. The seed treated with esterase and control seed was planted in replicated trials distributed across 6 replicated plots with 4 replicates of 60 ft2 each at each site.

soybean [2] = assay: Field trial: Feruloyl Esterase soybean seed treatment, yield; details: 1 fl oz/unit on soybean seed; 5 sites
Excerpt: 1 fl oz/unit of Feruloyl Esterase (SEQ ID NO:91) was coated onto soybean seeds treated with Fludioxinil fungicide, metalaxyl fungicide, thiamethoxam […], Seedwork 1037L polymer, and Sensient Red (colorant). A control treatment without esterase enzyme was also created. The seed treated with esterase and control seed was planted in replicated trials distributed across 5 replicated plots with 4 replicates of 30 ft2 each at each site.

corn [3] = assay: Field trial: PytH Esterase corn seed treatment, yield; details: 0.5 fl oz/unit on hybrid corn seed; 10 sites
Excerpt: 0.5 fl oz/unit of PythH Esterase from recombinant Bacillus subtilis fermentation (SEQ ID NO:255) was coated onto Hybrid corn seeds treated with Fludioxinil fungicide, ipconazole fungicide, peridium 1006 polymer, and Sensient Red (colorant). A control treatment without esterase enzyme was also created. The seed treated with esterase and control seed was planted in replicated trials distributed across 10 replicated plots with 4 replicates of 100 ft2 each at each site.

corn [4] = assay: Greenhouse trial: Rhizopus oryzae Esterase corn seed treatment, plant height; details: 0.5 fl oz/unit seed treatment, 6049 V2 hybrid corn, plant height day 10, water control = 100%
Experimental: Rhizopus oryzae Esterase (carboxylesterase, SEQ ID NO:253) was coated onto 6049 V2 hybrid corn seeds. A water only control treatment without esterase enzyme was also created. The seed treated with esterase and control seed was planted in replicated greenhouse trials on promix soil with a fluctuating day/night temperature of 78° F./75° F., and 13 hours of light daily. Plant heights were measured on day 10 for each plant emerged from the soil.

[5] = tested on: Fall armyworm (Spodoptera frugiperda); assay: Diet-surface overlay (DSO) bioassay on Fall armyworm; details: number of individuals, n = 32, 7 days
Experimental: Diet-surface overlay bioassays are conducted with artificial diet mixes without antibiotics in 1.5 cm^2 cell bioassay trays(s). Artificial diets are commercially available from Southland Products Inc. Diets were prepared by dispersing 0.5 mL of molten diet to each 1.5 cm^2 cell. After solidification, 0.1 mL enzyme treatments were dispersed on top of diet in each cell and the tray was gently rocked in an orbital shaker to spread the liquid uniformly over the diet surface. Trays were placed under clean airflow until the surface of each cell was uniformly dried. One or two 16-cell sections were used per treatment (the number in larvae treated was 16 or 32).
One healthy first instar larva was placed into each treatment cell, each 16-cell section was covered with a re-sealable lid and incubated at 27° C. and light-dark period of 16:8 hrs. After 7 days, and according to the species, the number of individuals in the following developmental categories was recorded.
Negative/untreated controls were treated with filtered water and positive controls were treated with lethal doses of Bacillus thuringiensis subsp. Kurstaki (Btk) spores at 1000 ppm.

[6] = tested on: Garden snails (Cornu aspersum); assay: Antifeedant and molluscicide bioassay on garden snails (diet consumption, survival, weight gain)
Experimental: Two-week old garden snails (Cornu aspersum) and full-size black gloss snails (Zonitoides nitidus) were maintained in a semi-darkened tank at 68-70° F. at high humidity, provided with a wet sponge in a petri dish. Snails were transferred to fresh tank every 2-3 days, and they were feed ad libitum with cucumber slices supplemented with calcium carbonate tablets. Individuals were reared in the laboratory for at least a week to fully acclimate to laboratory conditions prior to testing. The individuals ranged between 3 weeks to 2 months old at the time of bioassay.
Filter-sterilized recombinant enzymes including proteases and lipases were prepared as indicated in Example 25. Corresponding controls (e.g., buffer, fermentation of non-recombinant strain, water) were be prepared accordingly. Enzymes were dried by mixing them with Polyvinylpyrrolidone K30 (Thermo Sci Chem, Cat #227545000) at a ratio of 60 mg PVP per mL of enzymes, dispersed on a petri dish and allowed to dry in a bio-safety hood for 24-48 hours.
The treatments were prepared by mixing 0.4 g of dry enzyme and 1 gram of artificial diet mix. The artificial diet mix consisted of flour supplemented with 30 mg sucrose per gram of flour. […]
12 snails were randomly assigned to each treatment, labeled with permanent marker on the top of the shell for identification, and their weight (mg) was recorded before treatment. […] At the time of treatment replacement, treatment consumption, weight, and mortality were recorded.
Acid protease, alkaline protease, aminopeptidase, neutral protease, and keratinase, were prepared as indicated above and their antifeedant and molluscicidal effects were tested. […] The units (U) of enzyme activity was determined as the amount of enzyme required to breakdown 1 μM of substrate per minute. […]
Lipases from Burkholderia cepacia, Pseudomonas fluorescens, porcine pancreas, type II (PPII) were prepared as described above and their antifeedant and molluscicidal effects were tested. […] The units (U) of enzyme activity was determined as the amount of enzyme required to breakdown 1 μM of substrate per minute. […]

B1: Geobacillus stearothermophilus esterase (SEQ ID NO:252): Esterase (carboxylesterase) from Geobacillus/Bacillus stearothermophilus (protein, listed as Bacillus stearothermophilus, listed as Geobacillus stearothermophilus)
chain: MKIVPPKPFFFEAGERAVLLLHGFTGNSADVRMLGRFLESKGYTCHAPIYKGHGVPPEELVHTGPDDWWQDVMNGYEFLKNKGYEKIAVAGLSLGGVFSLKLGYTVPIEGIVTMCAPMYIKSEETMYEGVLEYAREYKKREGKSEEQIEQEMEKFKQTPMKTLKALQELIADVRDHLDLIYAPTFVVQARHDEMINPDSANIIYNEIESPVKQIKWYEQSGHVITLDQEKDQLHEDIYAFLESLDW
Soybean [1]
  yield vs base seed treatment package (in words): increased the yield

B2: Feruloyl Esterase (SEQ ID NO:91): Beauveria bassiana Feruloyl Esterase A2 (protein, listed as Beauveria bassiana)
chain: MLSLLGFLGFAALAAAAPVRDQAFIPRTLVNRSIYDKLALYAGYTQLSNTGICARPSVPGVLYQFVESKDTDTQVSIWKVDAYKEFVIAIPGTSSARDNETNFDFALVPYQADNVRCPSCRVHKGYQAAWRSVMKQVQGNLTNLLGIHPDYTVTLTGHSLGGGLVSIAFPTLRNGPYNVTQAYTYGQPRAGNGAFANYVDGISGASDKEAGIFYRVTHANDLIPKLPPGIFGYKHSRTEYWESKPSMDNAASTYRCYGQEPADCNRNATGIDSKVHVTYAGMNVTCNKS
modifications: Feruloyl Esterase A2
Soybean [2]
  yield vs base seed treatment package (in words): increased the yield

B3: PytH esterase (SEQ ID NO:255): Sphingobium wenxiniae (PytH) Esterase from recombinant Bacillus subtilis fermentation (protein, listed as Sphingobium wenxiniae)
chain: MTVTDIILIHGALNRGACYDAVVPLLEARGYRVHAPDLTGHTPGDGGHLSVVDMEHYTRPVADILARAEGQSILLGHSLGGASISWLAQHHPDKVAGLIYLTAVLTAPGITPETFVLPGEPNRGTPHALDLIQPVDEGRGLQADFSRLERLREVFMGDYPGEGMPPAEQFIQTQSTVPFGTPNPMEGRALEIPRLYIEALDDVVIPIAVQRQMQKEFPGPVAVVSLPASHAPYYSMPERLAEAIADFADAPAEYRQTATKAGPDRPAGADGGRADRADLP
Corn [3]
  yield vs base seed treatment package (in words): increased the yield

B4: Esterase from Rhizopus oryzae: Rhizopus oryzae Esterase (carboxylesterase, SEQ ID NO:253) (protein, listed as Rhizopus oryzae)
chain: SDGGKVVAATTAQIQEFTKYAGIAATAYCRSVVPGNKWDCVQCQKWVPDGKIITTFTSLLSDTNGYVLRSDKQKTIYLVFRGTNSFRSAITDIVFNFSDYKPVKGAKVHAGFLSSYEQVVNDYFPVVQEQLTANPTYKVIVTGHSLGGAQALLAGMDLYQREPRLSPKNLSIFTVGGPRVGNPTFAYYVESTGIPFQRTAHKRDIVPHVPPQSFGFLHPGVESWIKSGTSNVQICTSEIETKDCSNSIVPFTSILDHLSYFDINEGSCL
modifications: Rhizopus cf. oryzae
Corn [4]
  Height as % of Control: 103.7%
Corn [4]; listed as Rhizopus oryzae Esterase
  Height as % of Control: increase the growth rate of corn

B5: PpII Lipase: free lipase from porcine pancreas Type II (PpII) (protein, UniProt P00591 1-450, looked up)
Pancreatic triacylglycerol …: SEVCFPRLGCFSDDAPWAGIVQRPLKILPWSPKDVDTRFLLYTNQNQNNYQELVADPSTITNSNFRMDRKTRFIIHGFIDKGEEDWLSNICKNLFKVESVNCICVDWKGGSRTGYTQASQNIRIVGAEVAYFVEVLKSSLGYSPSNVHVIGHSLGSHAAGEAGRRTNGTIERITGLDPAEPCFQGTPELVRLDPSDAKFVDVIHTDAAPIIPNLGFGMSQTVGHLDFFPNGGKQMPGCQKNILSQIVDIDGIWEGTRDFVACNHLRSYKYYADSILNPDGFAGFPCDSYNVFTANKCFPCPSEGCPQMGHYADRFPGKTNGVSQVFYLNTGDASNFARWRYKVSVTLSGKKVTGHILVSLFGNEGNSRQYEIYKGTLQPDNTHSDEFDSDVEVGDLQKVKFIWYNNNVINPTLPRVGASKITVERNDGKVYDFCSQETVREEVLLTLNPC
[5]; Table 46, lipases
  Dead Larva: 0
[5]; Table 46
  Larva Stage I: 2
  Larva Stage II: 5
  Larva Stage III: 15
  Larva Stage IV: 10
[6]; lipases, garden snail, n = 12, 12 days, dose per treatment in U/gr diet
  Diet consumption: 0.82 gr
[6]; lipases, garden snail, number of n = 12, 12 days
  Dead Snails: 0
[6]; text to Table 62, lipases in artificial diet, n = 12, 12 days
  food consumption (in words): consistent reduction in food consumption
